From IntAct's records for PubMed 16319076

B1: Profilin-2 (Mus musculus), Q9JJV2-1 (parent)
chain: MAGWQSYVDNLMCDGCCQEAAIVGYCDAKYVWAATAGGVFQSITPVEIDMIVGKDREGFFTNGLTLGAKKCSVIRDSLYVDGDCTMDIRTKSQGGEPTYNVAVGRAGRVLVFVMGKEGVHGGGLNKKAYSMAKYLRDSGF
partner: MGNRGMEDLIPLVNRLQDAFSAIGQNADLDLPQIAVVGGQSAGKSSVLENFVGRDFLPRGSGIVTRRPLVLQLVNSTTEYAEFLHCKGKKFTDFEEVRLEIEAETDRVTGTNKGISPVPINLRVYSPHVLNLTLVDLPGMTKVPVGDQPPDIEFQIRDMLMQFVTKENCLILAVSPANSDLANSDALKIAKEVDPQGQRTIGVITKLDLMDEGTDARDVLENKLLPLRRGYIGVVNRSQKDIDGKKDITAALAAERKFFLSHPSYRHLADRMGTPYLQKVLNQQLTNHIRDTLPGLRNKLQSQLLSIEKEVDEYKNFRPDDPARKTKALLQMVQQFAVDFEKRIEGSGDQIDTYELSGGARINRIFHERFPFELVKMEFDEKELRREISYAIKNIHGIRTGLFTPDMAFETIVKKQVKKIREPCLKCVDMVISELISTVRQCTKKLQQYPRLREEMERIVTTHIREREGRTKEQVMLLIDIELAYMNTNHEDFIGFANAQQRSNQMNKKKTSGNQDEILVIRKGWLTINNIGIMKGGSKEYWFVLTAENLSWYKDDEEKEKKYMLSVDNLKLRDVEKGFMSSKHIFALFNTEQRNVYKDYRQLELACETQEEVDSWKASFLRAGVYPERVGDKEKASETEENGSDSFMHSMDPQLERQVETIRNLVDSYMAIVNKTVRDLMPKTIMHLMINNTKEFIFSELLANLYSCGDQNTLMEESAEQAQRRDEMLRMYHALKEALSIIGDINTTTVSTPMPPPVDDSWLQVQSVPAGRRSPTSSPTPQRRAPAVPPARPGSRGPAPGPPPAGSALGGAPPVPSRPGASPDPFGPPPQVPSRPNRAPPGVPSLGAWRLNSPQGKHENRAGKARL

Variants of: B1
Conditions: with dyn1_mouse Dnm1, P39053

| effect of a mutation on the interaction | Variant |
| --- | --- |
| decreasing interaction | MAGWQSYVDNLMCDGCCQEAAIVGYCDAKYVWAATAGGVFQSITPVEIDMIVGKDREGFFTNGLTLGAKKCSVIRDSLYVDGDCTMDIRTKSQGGEPTYNVAVGRAGRVLVFVMGKEGVHGGGLNKKAYSMAKYLRDDGF [S138D] |
